In assay [1] the target is T1, Recombinant Human IL-23 (human, UniProt Q9NPF7 20-189; P29460 23-328).
T1 construct: Recombinant human IL-23; the p40 subunit is added from general knowledge of the heterodimer; also called hIL-23
T1 sequence (looked up) 1: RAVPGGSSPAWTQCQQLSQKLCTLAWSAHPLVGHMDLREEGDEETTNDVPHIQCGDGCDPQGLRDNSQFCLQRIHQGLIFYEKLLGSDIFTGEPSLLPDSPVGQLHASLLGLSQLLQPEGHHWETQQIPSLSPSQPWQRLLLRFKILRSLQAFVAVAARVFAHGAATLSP
T1 sequence (looked up) 2: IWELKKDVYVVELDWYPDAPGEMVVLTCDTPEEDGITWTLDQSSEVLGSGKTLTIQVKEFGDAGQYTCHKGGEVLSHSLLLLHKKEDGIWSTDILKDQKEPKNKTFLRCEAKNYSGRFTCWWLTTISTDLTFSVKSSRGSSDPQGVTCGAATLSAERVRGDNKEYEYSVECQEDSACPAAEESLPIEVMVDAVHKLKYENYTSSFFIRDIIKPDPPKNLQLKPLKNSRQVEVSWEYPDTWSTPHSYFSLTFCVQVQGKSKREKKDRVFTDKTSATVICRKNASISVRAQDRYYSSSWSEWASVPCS
Briefly: SPR (Biacore 8K), mAb captured on anti-human IgG, hIL-23 as analyte, 25 °C. How it is done:
Binding affinities (K_D) of antibodies to human IL-23 (generated as described in Examples 1-3) were determined through surface plasmon resonance (SPR) using a BIA-CORE™ 8K SPR system (Cytiva). […] Anti-IL23 mAb constructs (diluted to 2 µg/mL) were captured onto flow cell 2 (active) for 60 sec at a flow rate of 10 µL/min. Recombinant Human IL-23 was prepared at concentrations of 0, 1.23, 3.7, 11.11, 33.33, 100 nM and injected over flow cell 1 (reference) and flow cell 2 (active) for 180 sec at a flow rate of 50 µL/min. Samples were injected in a multi-cycle manner over freshly captured mAb, by regenerating the capture surfaces with injection of 10 mM glycine, pH 1.5 for 30 sec at a flow rate of 30 µL/min. A 1:1 kinetic binding model was utilized to determine the apparent association (ka) and dissociation rate constants (kd). Their ratio provides the apparent equilibrium dissociation constant or affinity constant (K_D=kd/ka).
Background: SPR reads the build-up and loss of mass on a sensor chip optically.

Assay [2] deals with T1, Recombinant Human IL-23. Briefly: cell-based or functional assay.
The target in assay [3] is T1, Recombinant Human IL-23. Briefly: cell-based or functional assay. The source holds these as a separate data set.
For assay [4], the target named is T1, Recombinant Human IL-23. Briefly: cell-based or functional assay. The source holds these as a separate data set.

Usually koff stands for the rate constant with which the complex falls apart. Broadly, the kon is a measure of how fast the partners come together.

B1: Reference Antibody 1 (antibody, human IgG1, kappa, L234A L235A, V domains shown)
VH: QVQLVQSGAEVKKPGSSVKVSCKASGYTFTDQTIHWMRQAPGQGLEWIGYIYPRDDSPKYNENFKGKVTITADKSTSTAYMELSSLRSEDTAVYYCAIPDRSGYAWFIYWGQGTLVTVSS
VL: DIQMTQSPSSLSASVGDRVTITCKASRDVAIAVAWYQQKPGKVPKLLIYWASTRHTGVPSRFSGSGSRTDFTLTISSLQPEDVADYFCHQYSSYPFTFGSGTKLEIKR
notes: Human IgG1 with LALA; also called parental anti-human IL-23p19 antibody
Take B1: in assay [1], the koff was below 1e-06 s⁻¹ and the kon was determined as 167000 M⁻¹ s⁻¹. Moreover, in assay [2], the “Relative IC50, inhibition of IL-23-induced STAT3 activation (luciferase reporter, HEK 293F IL-23R+/IL-12Rβ1+)” value was 1 relative to Reference Antibody 1. Besides, in assay [3], the “Relative IC50, inhibition of IL-23-induced phosphorylation of STAT3 in DB cells (pSTAT3 ELISA)” value (“Relative IC50, inhibition … (pSTAT3 ELISA)” below) is 1 relative to Reference Antibody 1.

B2: Clone MAb004 (antibody, human IgG1, V domains shown)
VH: QVQLVQSGAEVKKPGSSVKVSCKASGYTFTAQTMHWMRQAPGQGLEWIGYIYPRDGSTKYNENFKGKVTITADKSTSTAYMELSSLRSEDTAVYYCAIPDRSGYAWFIVWGQGTLVTVSS
VL: EIVMTQSPATLSVSPGERATLSCKASRDVAIAVAWYQQKPGQAPRLLLFWASTRHTGIPARFSGSGSRTEFTLTISSLQSEDFAVYYCHQYSSYPFTFGGGTKVEIK
notes: Tested in full antibody format; The printed constant part is human IgG1 with LALA/YTE
As to B2, in assay [1], the koff is below 1e-06 s⁻¹ and the kon turned out to be 247000 M⁻¹ s⁻¹. Also, the “Relative IC50, inhibition of IL-23-induced STAT3 activation (luciferase reporter, HEK 293F IL-23R+/IL-12Rβ1+)” value in assay [2] was 0.409 relative to Reference Antibody 1.

B3: Clone MAb001 (antibody, human IgG1, kappa, L234A L235A, V domains shown)
VH: QVQLVQSGAEVKKPGSSVKVSCKASGYTFTTQTLHWMRQAPGQGLEWIGYIYPRDGSTKYNENFKGKVTITADKSTSTAYMELSSLRSEDTAVYYCAIPDRSGYAWFQHWGQGTLVTVSS
VL: DIQMTQSPSSLSASVGDRVTITCKASRDVAIAVAWYQQKPGKVPKLLIYWASTRHTGVPSRFSGSGSRTDFTLTISSLQPEDVADYFCHQYSSYPFTFGSGTKLEIKR
B3: in assay [1], the koff was below 1e-06 s⁻¹ and the kon turned out to be 151000 M⁻¹ s⁻¹. In addition, the “Relative IC50, inhibition of IL-23-induced STAT3 activation (luciferase reporter, HEK 293F IL-23R+/IL-12Rβ1+)” value in assay [2] is 0.612 relative to Reference Antibody 1. Moreover, the “Relative IC50, inhibition … (pSTAT3 ELISA)” value in assay [3] was 0.573 relative to Reference Antibody 1.

B4: Clone MAb003 (antibody, V domains shown)
VH: QVQLVQSGAEVKKPGSSVKVSCKASGYTFTSQTMHWMRQAPGQGLEWIGYIYPRDDYPKYNDNFKGKVTITADKSTSTAYMELSSLRSEDTAVYYCAIPDRSGYAWFIHWGQGTLVTVSS
VL: DIQMTQSPSSLSASVGDRVTITCKASRDVAIAVAWYQQKPGKVPKLLIYWASTRHTGVPSRFSGSGSRTDFTLTISSLQPEDVADYFCHQYSSYPFTFGSGTKLEIKR
Turning to B4, in assay [1], the koff was below 1e-06 s⁻¹ and the kon came out at 164000 M⁻¹ s⁻¹. Further, in assay [2], the “Relative IC50, inhibition of IL-23-induced STAT3 activation (luciferase reporter, HEK 293F IL-23R+/IL-12Rβ1+)” value was 0.868 relative to Reference Antibody 1. The “Relative IC50, inhibition … (pSTAT3 ELISA)” value in assay [3] was 0.799 relative to Reference Antibody 1.

B5: Clone MAb002 (antibody, human IgG1, kappa, L234A L235A, V domains shown)
VH: EVQLLESGGGLVQPGGSLRLSCAASGYTFTDQTIHWVRQAPGKGLEWIGYIYPRDDSPKYNENFKGRATLSADNSKNTAYLQMNSLRAEDTAVYYCAIPDRSGYAWFIYWGQGTTVTVSS
VL: EIVMTQSPATLSVSPGERATLSCKASRDVAIAVAWYQQKPGQAPRLLLFWASTRHTGIPARFSGSGSRTEFTLTISSLQSEDFAVYYCHQYSSYPFTFGGGTKVEIKR
notes: Described as an extended half-life humanized IgG1 monoclonal antibody
In the case of B5, in assay [1], the koff is below 1e-06 s⁻¹ and the kon came to 266000 M⁻¹ s⁻¹. The “Relative IC50, inhibition of IL-23-induced STAT3 activation (luciferase reporter, HEK 293F IL-23R+/IL-12Rβ1+)” value in assay [2] was 0.64 relative to Reference Antibody 1. In addition, the “IC50, inhibition of STAT3 activity and phosphorylation” value in assay [4] is below 1 nM.

(Values after patent publication US12655208 (PARAGON THERAPEUTICS, dated 2026).)
